This is an account of results in US20260069656A1, “Nutritive Polypeptides and Formulations Thereof, and Methods of Production and Use Thereof” (Axcella Health Inc., priority 2013, published 2026).

The nature of this data set: Intact half-life during simulated gastric fluid (SGF) digestion. To be noted: SGF pH 1.5, pepsin:polypeptide 1:20 w/w, 37° C.; produced in E. coli unless otherwise noted.

Substitutions are numbered along the chain they refer to. In names and notes the source's numbering stands. Some results are limits rather than exact numbers.

B1: SEQID-00672 (BS): nutritive polypeptide (protein, listed as Saccharomyces cerevisiae)
chain: MSSSESIRMVLIGPPGAGKGTQAPNLQERFHAAHLATGDMLRSQIAKGTQLGLEAKKIMDQGGLVSDDIMVNMIKDELTNNPACKNGFILDGFPRTIPQAEKLDQMLKEQGTPLEKAIELKVDDELLVARITGRLIHPASGRSYHKIFNPPKEDMKDDVTGEALVQRSDDNADALKKRLAAYHAQTEPIVDFYKKTGIWAGVDASQPPATVWADILNKLGKD
modifications: strain ATCC 204508 / S288c
B1: the “SGF Half-life (t½)” value is 18 s.

B2: SEQID-00678 (BS): nutritive polypeptide (protein, listed as Saccharomyces cerevisiae)
chain: B1 chain with R42K
modifications: strain ATCC 204508 / S288c
In the case of B2, the “SGF Half-life (t½)” value is 12 s.

B3: SEQID-00420: nutritive polypeptide (protein)
chain: AAAPLEKRSCTFTSASAAKSGKSSCSTITLDNIAVPAGETLDLTGLKKGTTVIFEGETTFGYKEWKGPLISMSGTDITVKQASGAKINCDGARWWDGKGSNGGKTKPKFFQAHKLDQSSITGLKVYNTPVQGFSILADHLTITDVTIDNSAGTSKGHNTDAFDIGQSTYITIDGATVYNQDDCLAINSGEHITFTNGYCDGGHGLSIGSIGGRSDNTVNDVTISNSKVLNSQNGVRIKTIYGKTGTVENVKFEDITLSDISKYGIVVEQDYENGSPTGTPTNGVKVEDITFKKVTGSVKSSGTDIYILCGSGSCSNWTWSGVDVTGGKKSSKCKNVPSGASCSD
modifications: Aspergillus niger; strain CBS 513.88 / FGSC A1513
On to B3, for which the “SGF Half-life (t½)” value is 72 s.

B4: SEQID-00359: nutritive polypeptide naturally produced in Sheep, recombinantly expressed in E. coli (protein)
chain: MLELGSQRNRAKNNHIGDLMSQSFESLGISEQRARHLETLGFTEPTPVQIQAIPEMLSGRDVVGMAQTGTGKTAAFSLPILEQIDVHAAGIQALVLTPTRELAMQVKEAIRTFSDDNALYVLTVYGGQSIDRQIQRLRRGVQVVVGTPGRILDLLNRGELKLDLLRWLVLDEADEMLSMGFIQDVEKILESADSEHRQTAFFSATMDASISKLVRRHLKSPVTVKVETPKATPKRIEQSVYMVPRGWSKARALEPILELEDPESAIIFVRTKQSAADLTNQLQAAGHSVDEYHGNLNQSQRERLLMRLRRRQVRWIVATDIAARGLDVDHLTHVINYDLPDQVDSYVHRIGRTGRAGREGKAITLIQPIDRRKLRNIERHLRQTLSIQSIPKRAEIEARYIDRLKDRVRDALAGERMASFLPIVSQLSEEYDPHAIAAAALQLAYDQTRPASIGRDDYEDDDDAVSNKPKLIKRRRPASVSNNS
modifications: Arthrospira platensis NIES-39
With B4, the “SGF Half-life (t½)” value was 12 s.

B5: SEQID-00690: engineered secreted variant of SEQID-00407 enriched in essential amino acids which retains enzymatic activity (protein, listed as Bacillus subtilis)
chain: ETANKSNELTAPSIKSGTILHAWNWSFNTLKHNMKDIHDAGYTAIQTSPINQVKEGNQGDKSMSNWYWLYQPTSYQIGNRYLGTEQEFKEMCAAAEEYGIKVIVDAVINHTTSDLVGVLSNEVKSIPNWTHGNTQIKNWSDRWDVTQNSLLGLYDWNTQNTQVQSYLKRFLDRALNDGADGFRFDAAKHIELPDDGSYGSQFWPNITRVVMEFQYGEILQDSASRDAAYANYMDVTASNYGHSIRSALKNRNLGVSNIVMYILRVSADKLVTWVESHDTYANDDEESTWMSDDDIRLGWAVIASRSGSTPLFFSRPEGGGNGVRFPGKSQIGDRGSALFEDQAITAVNRFHNVMAGLPKRLSNPNGNNQIFMNQRGSHGVVLANAGSSSVSINTATKLPDGRYDNKAGAGSFQVNDGKLTGTINARSVAVLYPDDIAKAPHVFLENYKTGVTHSFNDQLTITMRADANTTKAVYQINNGPETAFKDGDQFTIGKGDPFGKTYTIMLKGTNSDGVTRTEKYSFVKRDPASAKTIGYQNPNHWSQVNAYIYKHDGSRVIELTGSWPGKPMTKNADGIYTLTLPADTDTTNAKVIFNNGSAQVPGQNQPGFDYVLNGLYNDSGLSGSLPH
modifications: strain 168
As for B5, the “SGF Half-life (t½)” value was 264 s.

B6: SEQID-00546: protein of the 168 nutritive polypeptide library (protein, listed as Saccharomyces cerevisiae)
chain: MCSAGGIRRPIQIEEFKTAISGMSDMELAQIKTEIENSINHLQRSNARLGKYIAKLEGADDRLEADDSDDLENIDSGDLALYKDSVRENEIVLNNYNERVDALEQETVYRKTGHGKSKHEVEAKDNTNKGPDVDMDNSNVDVVTPNSIFI
modifications: strain ATCC 204508 / S288c
As for B6, the “SGF Half-life (t½)” value was under 600 s.

B7: SEQID-00363 (E. coli): nutritive polypeptide (protein)
chain: ATLDSWLSNEATVARTAILNNIGADGAWVSGADSGIVVASPSTDNPDYFYTWTRDSGLVLKTLVDLFRNGDTSLLSTIENYISAQAIVQGISNPSGDLSSGAGLGEPKFNVDETAYTGSWGRPQRDGPALRATAMIGFGQWLLDNGYTSTATDIVWPLVRNDLSYVAQYWNQTGYDLWEEVNGSSFFTIAVQHRALVEGSAFATAVGSSCSWCDSQAPEILCYLQSFWTGSFILANFDSSRSGKDANTLLGSIHTFDPEAACDDSTFQPCSPRALANHKEVVDSFRSIYTLNDGLSDSEAVAVGRYPEDTYYNGNPWFLCTLAAAEQLYDALYQWDKQGSLEVTDVSLDFFKALYSDAATGTYSSSSSTYSSIVDAVKTFADGFVSIVETHAASNGSMSEQYDKSDGEQLSARDLTWSYAALLTANNRRNSVVPASWGETSASSVPGTCAATSAIGTYSSVTVTSWPSIVATGGTTTTATPTGSGSVTSTSKTTATASKTSTSTSSTSCTTPTAVAVTFDLTATTTYGENIYLVGSISQLGDWETSDGIALSADKYTSSDPLWYVTVTLPAGESFEYKFIRIESDDSVEWESDPNREYTVPQACGTSTATVTDTWR
modifications: Aspergillus niger
Take B7: the “SGF Half-life (t½)” value was under 600 s.

B8: SEQID-00001: nutritive polypeptide (protein, listed as Gallus gallus)
chain: MGSIGAASMEFCFDVFKELKVHHANENIFYCPIAIMSALAMVYLGAKDSTRTQINKVVRFDKLPGFGDSIEAQCGTSVNVHSSLRDILNQITKPNDVYSFSLASRLYAEERYPILPEYLQCVKELYRGGLEPINFQTAADQARELINSWVESQTNGIIRNVLQPSSVDSQTAMVLVNAIVFKGLWEKAFKDEDTQAMPFRVTEQESKPVQMMYQIGLFRVASMASEKMKILELPFASGTMSMLVLLPDEVSGLEQLESIINFEKLTEWTSSNVMEERKIKVYLPRMKMEEKYNLTSVLMAMGITDVFSSSANLSGISSAESLKISQAVHAAHAEINEAGREVVGSAEAGVDAASVSEEFRADHPFLFCIKHIATNAVLFFGRCVSP
With B8, the “SGF Half-life (t½)” value is 300 s.

B9: SEQID-00001 (HEK293): nutritive polypeptide (protein, listed as Gallus gallus)
chain: B8 chain
modifications: expressed in HEK293
Consider B9, for which the “SGF Half-life (t½)” value is 516 s.

B10: SEQID-00407 (BS): a-amylase in Bacillus subtilis (amyE); Wild-type of Tables E37A and E38E (protein, listed as Bacillus subtilis)
chain: ETANKSNELTAPSIKSGTILHAWNWSFNTLKHNMKDIHDAGYTAIQTSPINQVKEGNQGDKSMSNWYWLYQPTSYQIGNRYLGTEQEFKEMCAAAEEYGIKVIVDAVINHTTSDYAAISNEVKSIPNWTHGNTQIKNWSDRWDVTQNSLLGLYDWNTQNTQVQSYLKRFLDRALNDGADGFRFDAAKHIELPDDGSYGSQFWPNITNTSAEFQYGEILQDSASRDAAYANYMDVTASNYGHSIRSALKNRNLGVSNISHYASDVSADKLVTWVESHDTYANDDEESTWMSDDDIRLGWAVIASRSGSTPLFFSRPEGGGNGVRFPGKSQIGDRGSALFEDQAITAVNRFHNVMAGQPEELSNPNGNNQIFMNQRGSHGVVLANAGSSSVSINTATKLPDGRYDNKAGAGSFQVNDGKLTGTINARSVAVLYPDDIAKAPHVFLENYKTGVTHSFNDQLTITLRADANTTKAVYQINNGPETAFKDGDQFTIGKGDPFGKTYTIMLKGTNSDGVTRTEKYSFVKRDPASAKTIGYQNPNHWSQVNAYIYKHDGSRVIELTGSWPGKPMTKNADGIYTLTLPADTDTTNAKVIFNNGSAQVPGQNQPGFDYVLNGLYNDSGLSGSLPH
modifications: strain 168
Take B10: the “SGF Half-life (t½)” value is 12 s.

B11: SEQID-00418: nutritive polypeptide (protein)
chain: VPRVRRQGASSSFDYKSQIVRGVNLGGWLVTEPWITPSLYDSTGGGAVDEWTLCQILGKDEAQAKLSSHWSSFITQSDFDRMAQAGLNHVRIPIGYWAVAPIDGEPYVSGQIDYLDQAVTWARAAGLKVLVDLHGAPGSQNGFDNSGHRGPIQWQQGDTVNQTMTAFDALARRYAQSDTVTAIEAVNEPNIPGGVNEDGLKNYYYGALADVQRLNPSTTLFMSDGFQPVESWNGFMQGSNVVMDTHHYQVFDTGLLSMSIDDHVKTACSLATQHTMQSDKPVVVGEWTGALTDCAKYLNGVGNAARYDGTYMSTTKYGDCTGKSTGSVADFSADEKANTRRYIEAQLEAYEMKSGWLFWTWKTEGAPGWDMQDLLANQLFPTSPTDRQYPHQCS
modifications: Aspergillus niger; strain CBS 513.88 / FGSC A1513
Regarding B11, the “SGF Half-life (t½)” value is 12 s.

B12: SEQID-00418 (E. coli): nutritive polypeptide (protein)
chain: B11 chain
modifications: Aspergillus niger; strain CBS 513.88 / FGSC A1513
For B12, the “SGF Half-life (t½)” value is 30 s.
